Kd data for 8 substances are collected here from publication PMC5153528.

Values joined by “and” are separate entries in the source; they are usually repeats but may differ in a detail not shown here. Equal entries are not always repeated.

The first experiment has as its target recombinant monoclonal rhesus macaque IgG1 (MM IgG1), anti-CD8α (rhesus macaque (Macaca mulatta)). The experiment can be described thus: SPR; IgG covalently coupled (sNHS/EDC, printed at four densities, sodium acetate pH 4.5-5.0) on a carboxymethyldextran prism (IBIS MX96 array); FcγR injected as analyte, eight part threefold dilution series generally starting between 18 and 41 µM; running buffer PBS + 0.01% BSA + Tween 20; global kinetic analysis, 1:1 model; two experiments with different preparations of FcγR.
For “human FcγRIIIa F158 (from UniProt P08637 17-254) (receptor)”, the Kd (commonly the concentration at which binding is half-saturated) is 4 µM and 8 µM.

human FcγRIIIa V158 (receptor): the Kd is 4 µM and 5 µM.

As for “human FcγRIIIb NA1 (from UniProt O75015 17-200) (receptor)”, the Kd is 18 µM and 14 µM.

For “human FcγRIIIb NA2 (from UniProt O75015 17-200) (receptor)”, the Kd was 13 µM and 15 µM.

As for “human FcγRIIIb SH (from UniProt O75015 17-200) (receptor)”, the Kd was 15 µM and 9 µM.

Consider “human FcγRIIa H131 (from UniProt P12318 34-317) (receptor)”, for which the Kd was 7 µM and 9 µM.

Regarding human FcγRIIa R131 (receptor), the Kd was 21 µM and 9 µM.

Turning to “human FcγRIIb/c (from UniProt P31994 43-310) (receptor)”, the Kd was 53 µM and 36 µM.

Another experiment deals with recombinant monoclonal rhesus macaque IgG4 (MM IgG4), anti-CD8α (rhesus macaque (Macaca mulatta)). The description is as above.
“human FcγRIIIa F158 (from UniProt P08637 17-254) (receptor)”: the Kd is 48 µM and 17 µM.

On to human FcγRIIIa V158 (receptor), for which the Kd was 29 µM.

Take “human FcγRIIIb NA1 (from UniProt O75015 17-200) (receptor)”: the Kd is 500 µM and 120 µM.

“human FcγRIIIb NA2 (from UniProt O75015 17-200) (receptor)”: the Kd is 730 µM and 270 µM.

Turning to “human FcγRIIIb SH (from UniProt O75015 17-200) (receptor)”, the Kd was 465 µM and 340 µM.

With “human FcγRIIa H131 (from UniProt P12318 34-317) (receptor)”, the Kd was 20 µM and 23 µM.

human FcγRIIa R131 (receptor): the Kd was 20 µM and 11 µM.

On to “human FcγRIIb/c (from UniProt P31994 43-310) (receptor)”, for which the Kd was 33 µM and 32 µM.

In a further experiment the target is recombinant monoclonal rhesus macaque IgG2 (MM IgG2), anti-CD8α (rhesus macaque (Macaca mulatta)). The description is as above.
Take “human FcγRIIIa F158 (from UniProt P08637 17-254) (receptor)”: the dissociation constant Kd is 48 µM and 15 µM.

Consider human FcγRIIIa V158 (receptor), for which the Kd was 21 µM and 14 µM.

On to “human FcγRIIIb NA1 (from UniProt O75015 17-200) (receptor)”, for which the Kd was 700 µM and 250 µM.

Turning to “human FcγRIIIb SH (from UniProt O75015 17-200) (receptor)”, the dissociation constant Kd was 530 µM and 80 µM.

Consider “human FcγRIIa H131 (from UniProt P12318 34-317) (receptor)”, for which the Kd came to 11 µM.

Consider human FcγRIIa R131 (receptor), for which the Kd is 41 µM and 32 µM.

In the case of “human FcγRIIb/c (from UniProt P31994 43-310) (receptor)”, the Kd was 90 µM and 125 µM.

The next experiment concerns the target recombinant monoclonal rhesus macaque IgG3 (MM IgG3), anti-CD8α (rhesus macaque (Macaca mulatta)). The description is as above.
Consider “human FcγRIIIa F158 (from UniProt P08637 17-254) (receptor)”, for which the Kd was 78 µM and 33 µM.

Consider human FcγRIIIa V158 (receptor), for which the Kd is 84 µM and 27 µM.

For the substance “human FcγRIIIb NA1 (from UniProt O75015 17-200) (receptor)”, the Kd was 700 µM and 210 µM.

Turning to “human FcγRIIIb NA2 (from UniProt O75015 17-200) (receptor)”, the Kd was 510 µM and 270 µM.

As to “human FcγRIIIb SH (from UniProt O75015 17-200) (receptor)”, the dissociation constant Kd is 740 µM and 350 µM.

As to “human FcγRIIa H131 (from UniProt P12318 34-317) (receptor)”, the Kd is 27 µM and 16 µM.

Consider human FcγRIIa R131 (receptor), for which the Kd was 25 µM and 11 µM.

Regarding “human FcγRIIb/c (from UniProt P31994 43-310) (receptor)”, the Kd was 46 µM and 38 µM.
